Patent US20140223606, “COMPOSITIONS AND METHODS COMPRISING SEQUENCES HAVING MEGANUCLEASE ACTIVITY” (PIONEER HI BRED INTERNATIONAL INC, published 2014)
Numbering of substitutions follows the chain as printed.

T1: ZM6.3(G5) (artificial)
T1 chain: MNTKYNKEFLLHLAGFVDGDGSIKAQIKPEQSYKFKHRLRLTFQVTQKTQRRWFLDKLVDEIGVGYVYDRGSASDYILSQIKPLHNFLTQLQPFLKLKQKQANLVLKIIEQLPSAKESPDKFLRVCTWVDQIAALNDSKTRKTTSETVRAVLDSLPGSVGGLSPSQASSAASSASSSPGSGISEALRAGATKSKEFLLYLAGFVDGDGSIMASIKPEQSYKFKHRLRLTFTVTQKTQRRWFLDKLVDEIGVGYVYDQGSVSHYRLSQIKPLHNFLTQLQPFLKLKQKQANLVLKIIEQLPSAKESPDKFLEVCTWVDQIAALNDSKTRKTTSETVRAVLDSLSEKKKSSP

T2: MHP14+(14) (artificial)
T2 chain: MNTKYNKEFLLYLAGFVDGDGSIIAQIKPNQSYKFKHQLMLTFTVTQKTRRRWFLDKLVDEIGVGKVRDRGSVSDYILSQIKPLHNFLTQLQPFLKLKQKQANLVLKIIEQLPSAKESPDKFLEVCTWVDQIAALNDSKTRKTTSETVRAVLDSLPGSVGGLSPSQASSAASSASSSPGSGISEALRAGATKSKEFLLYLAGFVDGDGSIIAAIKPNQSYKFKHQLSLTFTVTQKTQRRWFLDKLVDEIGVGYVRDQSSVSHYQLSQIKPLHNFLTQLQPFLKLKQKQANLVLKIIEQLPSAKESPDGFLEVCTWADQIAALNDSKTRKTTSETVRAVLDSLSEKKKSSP

T3: MHP14+(12) (artificial)
T3 chain: T2 chain with F16I, R50K, N103V, I132V, D153M, K244E, S258G, F281Y, G308K, A316V

T4: MHP14+(08) (artificial)
T4 chain: T2 chain with S22C, R50K, F54I, D56L, S258G, G308K

T5: MHP14+(06) (artificial)
T5 chain: T2 chain with D56L, I81K, K121G, K244E, S258G, F281Y, G308K, A316V, I319V

B1: ZM6.3 recognition site (dsDNA)
DNA 1: CAGGCTCTCGTAAATGCGCCTG
DNA 2: CAGGCGCATTTACGAGAGCCTG
B2: MHP14 recognition site (dsDNA)
DNA 1: CAAACAGATTCACGTCAGATTT
DNA 2: AAATCTGACGTGAATCTGTTTG

Columns and labels:
ZM6.3(G5) = target: T1, ZM6.3(G5); assay: cell_activity; yeast 37 C; 28 C: 0; settings: tags: NLS, 6xHis
Procedure: A 3 mL culture of selective media (MP Biomedical) was inoculated with a single colony of the yeast screening strain and grown at 30° C. overnight. On the following day, a 50 ml YPD culture (MP Biomedical) was started with 2 ml of the overnight culture and grown at 30° C. overnight. On the following day, the cells were harvested by centrifugation at 4000 rpm. The cells were resuspended in 100 ml ice cold water and centrifuged again. The cells were then washed in 1.2 M sorbitol, followed by treatment with 2 ml of 10 mM Tris pH 8.0, 1 mM EDTA, 100 mM Lithium acetate, 10 mM DTT, 0.6M sorbitol for 30 minutes at 30° C. with shaking. The cells were recovered by centrifugation, washed in 40 ml 1.2M sorbitol and finally resuspended in 250 microliters of 1.2M sorbitol. 50 microliter aliquots were transferred to test tubes on ice. Up to 5 microliters of DNA (100-500 nanograms) were added. The suspension was transferred to a 0.2 cm electroporation cuvette, on ice. Electroporation was performed with a pulse charge at 1.5 kV, 200 ohms, 25 microF (pulse time of 5 milliseconds). 1 mL YPD media (MP Biomedical) was added and the cells were allowed to recover at 30° C. for 1-2 hr. The cells were centrifuged, resuspended in 100 uL 1M sorbitol and plated on selective media lacking leucine and containing 2% galactose. The resulting yeast colonies were incubated at various temperatures ranging from 22 to 37 degrees Celsius for 7-10 days. I-CreI and meganucleases derived from it have maximal activity at or above 37 degrees Celsius. Screening was performed at a range of temperatures from 22 to 37 degrees in order to observe increases in activity at lower temperatures which are relevant to certain biological systems (eg. plant cells, plant cell cultures, etc). At that time the red/white sectoring phenotype, indicative of meganuclease activity was observed. Colonies with increased white sectoring over the parental meganuclease (indicating colonies expressing a meganuclease with increased meganuclease activity), also referred to as “hits” and sometimes completely white, were isolated for further analysis. […]

MHP14+(14) = target: T2, MHP14+(14); assay: cell_activity; maize; yeast 37 C: 4; settings: tags: SV40 NLS
MHP14+(12) = target: T3, MHP14+(12); assay: cell_activity; maize; yeast 37 C: 4; settings: tags: SV40 NLS
MHP14+(08) = target: T4, MHP14+(08); assay: cell_activity; maize; yeast 37 C: 4; settings: tags: SV40 NLS
MHP14+(06) = target: T5, MHP14+(06); assay: cell_activity; maize; yeast 37 C: 4; settings: tags: SV40 NLS

Binder | activity (ZM6.3(G5)) [score 0-4] | activity (MHP14+(14)) | activity (MHP14+(12)) | activity (MHP14+(08)) | activity (MHP14+(06))
B1 | 2 |  |  |  | 
B2 |  | 39 % target site mutation rate | 47 % target site mutation rate | 25 % target site mutation rate | 7 % target site mutation rate
